Source: patent US20260234276A1 (DOMAIN THERAPEUTICS, published 2026)
Values joined by “and” are separate entries in the source; they are usually repeats but may differ in a detail not shown here. Equal values may be shown once.

What was measured:
human CCR8 [1] = biological target: T1, human CCR8 (human, UniProt P51685 1-355); experiment: flow cytometry, human activated T cells pre-incubated with 200 nM hCCL1
T1 construct: the cells are named under assay; also called hCCR8
Description: (§1) Briefly, 1·10⁵ cells per well in a 96 well plate were incubated with a dilution of unconjugated anti-CCR8 mAb at 10 μg/mL then diluted at 1/3.33, 4 dilution points (during 30 min at 4° C.). […] To determine EC50 value, 8 concentrations of anti-CCR8 mAb were tested. Unbound antibodies were washed away with PBS (Invitrogen by Thermofisher Scientific, Illkirch-Graffenstaden, France) supplemented by 2% Fetal Bovine Serum (Invitrogen by Thermofisher Scientific, Illkirch-Graffenstaden, France) and 2 mM EDTA (Invitrogen by Thermofisher Scientific, Illkirch-Graffenstaden, France). Subsequently, cells are centrifuged (5 min at 400 g) and bound antibody is detected with F(ab′)₂-Goat anti-Mouse IgG (H+L) Cross-Adsorbed Secondary Antibody, Alexa Fluor 488 (dilution 1/500) (Invitrogen by Thermofisher Scientific, Illkirch-Graffenstaden, France) or with F(ab′)₂-Goat anti-Human IgG Fc Secondary Antibody, PE (Invitrogen by Thermofisher Scientific, Illkirch-Graffenstaden, France) (dilution 1/1000) at 4° C. for 30 min. Detection reagent is washed away and cells are centrifuged (5 min at 400 g) and resuspended in 30 μL PBS. Bound detection antibody is quantified on a MacsQuant16 (Miltenyi, Gladbach, Germany) (B1 or B2 channel, 5000 events per acquisition).
(§2) Binding characteristics of anti-CCR8 mAb cellular reactivity was further investigated by testing their binding to activated T cells.

human CCR8 [2] = biological target: T1, human CCR8; experiment: flow cytometry, human activated T cells
Description: as §1, §2

human CCR8 [3] = biological target: T1, human CCR8; experiment: competition HTRF on HEK-293 cells with hCCR8; blocked ligand CCL1-AF647 [cont.]
human CCR8 [4] = biological target: T1, human CCR8; experiment: flow cytometry, HUT78 cells (native CCR8)
human CCR8 [5] = biological target: T1, human CCR8; experiment: flow cytometry, hCCR8 transfected CHOK1 cells
Description: as §1
EC50 values were not constantly determined in the same experiments.

human CCR8 [6] = biological target: T1, human CCR8; experiment: cell-based or functional assay
human CCR8 [7] = biological target: T1, human CCR8; experiment: cell-based or functional assay; remark: listed apart in the source
human CCR8 [8] = biological target: T1, human CCR8; experiment: cell-based or functional assay; remark: listed apart in the source
human CCR8 [9] = biological target: T1, human CCR8; experiment: cell-based or functional assay; remark: listed apart in the source

B1: 3-82 (antibody, human IgG1, kappa, V domains shown)
VH: QVQLVESGGGVVQPGRSLRLSCAASGFTFSNYRMHWVRQAPGKGLEWIAVIKVKSDNYGANYADSVKGRFTISRDNSKNTLYLQMNSLRAEDTAVYYCSSPTYPGSSGFAYWGQGTLVTVSS
VL: DIQMTQSPSSLSASVGDRVTITCRASQDISNYLNWYQQKPDGTVKLLIYYTSRLHTGVPSRFSGSGSGTDYTLTISNLQQEDIATYFCQQGNKFPPTFGGGTKVEINR
notes: humanized, human IgG1 kappa
% of labelled cells (human CCR8 [1]): 54%
% of labelled cells (human CCR8 [2]): 63%
IC50 (read off the curve) (human CCR8 [3]): ~0.02 µg/mL
% of labelled cells (human CCR8 [4]): 93%
EC50 (human CCR8 [5]): 0.1 nM
hCCL1 (100 nM) residual response, Protocol #2, mAb 0.08 µg/mL (human CCR8 [6]): 85%
hCCL1 (100 nM) residual response, Protocol #2, mAb 0.4 µg/mL (human CCR8 [6]): 94%
hCCL1 (100 nM) residual response, Protocol #2, mAb 10 µg/mL (human CCR8 [6]): 60%
hCCL1 (100 nM) residual response, Protocol #3, mAb 0.05 µg/mL (human CCR8 [6]): 93%
hCCL1 (100 nM) residual response, Protocol #3, mAb 0.5 µg/mL (human CCR8 [6]): 85%
hCCL1 (100 nM) residual response, Protocol #3, mAb 5 µg/mL (human CCR8 [6]): 62%
ADCC % Max lysis, NK cells Donor 3 (human CCR8 [7]): 16%
ADCC % Max lysis, NK cells Donor 4 (human CCR8 [7]): 19%
ADCC EC50, NK cells Donor 3 (human CCR8 [7]): 0.349 nM
ADCC EC50, NK cells Donor 4 (human CCR8 [7]): 1.91 nM
Top plateau value (% of hCCL1 100 nM) with 5 µg/mL mAb, Protocol #3 (human CCR8 [8]): 794%
IC50 (Gi2 BRET, pH 6.5) (human CCR8 [9]): 0.018 µg/ml and 0.12 nM
IC50 (Gi2 BRET, pH 7.4) (human CCR8 [9]): 0.02 µg/ml and 0.134 nM
